Patent US12104181B2, “Compositions and methods for treating viral infections targeting TRIM7” (THE BOARD OF REGENTS OF THE UNIVERSITY OF TEXAS SYSTEM, priority 2021, dated 2024)

B1: TRIM38: human RING type E3 ligase expressed from lentiviral vector (protein, UniProt O00635 1-465, looked up)
E3 ubiquitin-protein ligase …: MASTTSTKKMMEEATCSICLSLMTNPVSINCGHSYCHLCITDFFKNPSQKQLRQETFCCPQCRAPFHMDSLRPNKQLGSLIEALKETDQEMSCEEHGEQFHLFCEDEGQLICWRCERAPQHKGHTTALVEDVCQGYKEKLQKAVTKLKQLEDRCTEQKLSTAMRITKWKEKVQIQRQKIRSDFKNLQCFLHEEEKSYLWRLEKEEQQTLSRLRDYEAGLGLKSNELKSHILELEEKCQGSAQKLLQNVNDTLSRSWAVKLETSEAVSLELHTMCNVSKLYFDVKKMLRSHQVSVTLDPDTAHHELILSEDRRQVTRGYTQENQDTSSRRFTAFPCVLGCEGFTSGRRYFEVDVGEGTGWDLGVCMENVQRGTGMKQEPQSGFWTLRLCKKKGYVALTSPPTSLHLHEQPLLVGIFLDYEAGVVSFYNGNTGCHIFTFPKASFSDTLRPYFQVYQYSPLFLPPPGD
modifications: lentiviral expression
notes: human RING type E3 ligase expressed from lentiviral vector
B2: TRIM43: human RING type E3 ligase expressed from lentiviral vector (protein, UniProt Q96BQ3 1-446, looked up)
Tripartite motif-containing …: MDSDFSHAFQKELTCVICLNYLVDPVTICCGHSFCRPCLCLSWEEAQSPANCPACREPSPKMDFKTNILLKNLVTIARKASLWQFLSSEKQICGTHRQTKKMFCDMDKSLLCLLCSNSQEHGAHKHHPIEEAAEEHREKLLKQMRILWKKIQENQRNLYEEGRTAFLWRGNVVLRAQMIRNEYRKLHPVLHKEEKQHLERLNKEYQEIFQQLQRSWVKMDQKSKHLKEMYQELMEMCHKPDVELLQDLGDIVARSESVLLHMPQPVNPELTAGPITGLVYRLNRFRVEISFHFEVTNHNIRLFEDVRSWMFRRGPLNSDRSDYFAAWGARVFSFGKHYWELDVDNSCDWALGVCNNSWIRKNSTMVNSEDIFLLLCLKVDNHFNLLTTSPVFPHYIEKPLGRVGVFLDFESGSVSFLNVTKSSLIWSYPAGSLTFPVRPFFYTGHR
B3: TRIM46: human RING type E3 ligase expressed from lentiviral vector (protein, UniProt Q7Z4K8 1-759, looked up)
Tripartite motif-containing …: MAEGEDMQTFTSIMDALVRISTSMKNMEKELLCPVCQEMYKQPLVLPCTHNVCQACAREVLGQQGYIGHGGDPSSEPTSPASTPSTRSPRLSRRTLPKPDRLDRLLKSGFGTYPGRKRGALHPQVIMFPCPACQGDVELGERGLAGLFRNLTLERVVERYRQSVSVGGAILCQLCKPPPLEATKGCTECRATFCNECFKLFHPWGTQKAQHEPTLPTLSFRPKGLMCPDHKEEVTHYCKTCQRLVCQLCRVRRTHSGHKITPVLSAYQALKDKLTKSLTYILGNQDTVQTQICELEEAVRHTEVSGQQAKEEVSQLVRGLGAVLEEKRASLLQAIEECQQERLARLSAQIQEHRSLLDGSGLVGYAQEVLKETDQPCFVQAAKQLHNRIARATEALQTFRPAASSSFRHCQLDVGREMKLLTELNFLRVPEAPVIDTQRTFAYDQIFLCWRLPPHSPPAWHYTVEFRRTDVPAQPGPTRWQRREEVRGTSALLENPDTGSVYVLRVRGCNKAGYGEYSEDVHLHTPPAPVLHFFLDSRWGASRERLAISKDQRAVRSVPGLPLLLAADRLLTGCHLSVDVVLGDVAVTQGRSYWACAVDPASYLVKVGVGLESKLQESFQGAPDVISPRYDPDSGHDSGAEDATVEASPPFAFLTIGMGKILLGSGASSNAGLTGRDGPTAGCTVPLPPRLGICLDYERGRVSFLDAVSFRGLLECPLDCSGPVCPAFCFIGGGAVQLQEPVGTKPERKVTIGGFAKLD
modifications: lentiviral expression
notes: as for B1
B4: TRIM37: human RING type E3 ligase expressed from lentiviral vector (protein, UniProt O94972 1-964, looked up)
E3 ubiquitin-protein ligase …: MDEQSVESIAEVFRCFICMEKLRDARLCPHCSKLCCFSCIRRWLTEQRAQCPHCRAPLQLRELVNCRWAEEVTQQLDTLQLCSLTKHEENEKDKCENHHEKLSVFCWTCKKCICHQCALWGGMHGGHTFKPLAEIYEQHVTKVNEEVAKLRRRLMELISLVQEVERNVEAVRNAKDERVREIRNAVEMMIARLDTQLKNKLITLMGQKTSLTQETELLESLLQEVEHQLRSCSKSELISKSSEILMMFQQVHRKPMASFVTTPVPPDFTSELVPSYDSATFVLENFSTLRQRADPVYSPPLQVSGLCWRLKVYPDGNGVVRGYYLSVFLELSAGLPETSKYEYRVEMVHQSCNDPTKNIIREFASDFEVGECWGYNRFFRLDLLANEGYLNPQNDTVILRFQVRSPTFFQKSRDQHWYITQLEAAQTSYIQQINNLKERLTIELSRTQKSRDLSPPDNHLSPQNDDALETRAKKSACSDMLLEGGPTTASVREAKEDEEDEEKIQNEDYHHELSDGDLDLDLVYEDEVNQLDGSSSSASSTATSNTEENDIDEETMSGENDVEYNNMELEEGELMEDAAAAGPAGSSHGYVGSSSRISRRTHLCSAATSSLLDIDPLILIHLLDLKDRSSIENLWGLQPRPPASLLQPTASYSRKDKDQRKQQAMWRVPSDLKMLKRLKTQMAEVRCMKTDVKNTLSEIKSSSAASGDMQTSLFSADQAALAACGTENSGRLQDLGMELLAKSSVANCYIRNSTNKKSNSPKPARSSVAGSLSLRRAVDPGENSRSKGDCQTLSEGSPGSSQSGSRHSSPRALIHGSIGDILPKTEDRQCKALDSDAVVVAVFSGLPAVEKRRKMVTLGANAKGGHLEGLQMTDLENNSETGELQPVLPEGASAAPEEGMSSDSDIECDTENEEQEEHTSVGGFHDSFMVMTQPPDEDTHSSFPDGEQIGPEDLSFNTDENSGR
modifications: lentiviral expression
notes: as for B1
B5: TRIM45: human RING type E3 ligase expressed from lentiviral vector (protein, UniProt Q9H8W5 1-580, looked up)
E3 ubiquitin-protein ligase …: MSENRKPLLGFVSKLTSGTALGNSGKTHCPLCLGLFKAPRLLPCLHTVCTTCLEQLEPFSVVDIRGGDSDTSSEGSIFQELKPRSLQSQIGILCPVCDAQVDLPMGGVKALTIDHLAVNDVMLESLRGEGQGLVCDLCNDREVEKRCQTCKANLCHFCCQAHRRQKKTTYHTMVDLKDLKGYSRIGKPILCPVHPAEELRLFCEFCDRPVCQDCVVGEHREHPCDFTSNVIHKHGDSVWELLKGTQPHVEALEEALAQIHIINSALQKRVEAVAADVRTFSEGYIKAIEEHRDKLLKQLEDIRAQKENSLQLQKAQLEQLLADMRTGVEFTEHLLTSGSDLEILITKRVVVERLRKLNKVQYSTRPGVNDKIRFCPQEKAGQCRGYEIYGTINTKEVDPAKCVLQGEDLHRAREKQTASFTLLCKDAAGEIMGRGGDNVQVAVVPKDKKDSPVRTMVQDNKDGTYYISYTPKEPGVYTVWVCIKEQHVQGSPFTVMVRRKHRPHSGVFHCCTFCSSGGQKTARCACGGTMPGGYLGCGHGHKGHPGHPHWSCCGKFNEKSECTWTGGQSAPRSLLRTVAL
B6: TRIM35: human RING type E3 ligase expressed from lentiviral vector (protein, UniProt Q9UPQ4 1-493, looked up)
E3 ubiquitin-protein ligase …: MERSPDVSPGPSRSFKEELLCAVCYDPFRDAVTLRCGHNFCRGCVSRCWEVQVSPTCPVCKDRASPADLRTNHTLNNLVEKLLREEAEGARWTSYRFSRVCRLHRGQLSLFCLEDKELLCCSCQADPRHQGHRVQPVKDTAHDFRAKCRNMEHALREKAKAFWAMRRSYEAIAKHNQVEAAWLEGRIRQEFDKLREFLRVEEQAILDAMAEETRQKQLLADEKMKQLTEETEVLAHEIERLQMEMKEDDVSFLMKHKSRKRRLFCTMEPEPVQPGMLIDVCKYLGSLQYRVWKKMLASVESVPFSFDPNTAAGWLSVSDDLTSVTNHGYRVQVENPERFSSAPCLLGSRVFSQGSHAWEVALGGLQSWRVGVVRVRQDSGAEGHSHSCYHDTRSGFWYVCRTQGVEGDHCVTSDPATSPLVLAIPRRLRVELECEEGELSFYDAERHCHLYTFHARFGEVRPYFYLGGARGAGPPEPLRICPLHISVKEELDG
B7: TRIM40: human RING type E3 ligase expressed from lentiviral vector (protein, UniProt Q6P9F5 1-258, looked up)
E3 ubiquitin ligase TRIM40: MIPLQKDNQEEGVCPICQESLKEAVSTNCGHLFCRVCLTQHVEKASASGVFCCPLCRKPCSEEVLGTGYICPNHQKRVCRFCEESRLLLCVECLVSPEHMSHHELTIENALSHYKERLNRRSRKLRKDIAELQRLKAQQEKKLQALQFQVDHGNHRLEAGPESQHQTREQLGALPQQWLGQLEHMPAEAARILDISRAVTQLRSLVIDLERTAKELDTNTLKNAGDLLNRSAPQKLEVIYPQLEKGVSELLLQPPQKL
modifications: lentiviral expression
notes: as for B1
B8: TRIM39: human RING type E3 ligase expressed from lentiviral vector (protein, UniProt Q9HCM9 1-518, looked up)
E3 ubiquitin-protein ligase …: MAETSLLEAGASAASTAAALENLQVEASCSVCLEYLKEPVIIECGHNFCKACITRWWEDLERDFPCPVCRKTSRYRSLRPNRQLGSMVEIAKQLQAVKRKIRDESLCPQHHEALSLFCYEDQEAVCLICAISHTHRAHTVVPLDDATQEYKEKLQKCLEPLEQKLQEITRCKSSEEKKPGELKRLVESRRQQILREFEELHRRLDEEQQVLLSRLEEEEQDILQRLRENAAHLGDKRRDLAHLAAEVEGKCLQSGFEMLKDVKSTLEKNIPRKFGGSLSTICPRDHKALLGLVKEINRCEKVKTMEVTSVSIELEKNFSNFPRQYFALRKILKQLIADVTLDPETAHPNLVLSEDRKSVKFVETRLRDLPDTPRRFTFYPCVLATEGFTSGRHYWEVEVGDKTHWAVGVCRDSVSRKGELTPLPETGYWRVRLWNGDKYAATTTPFTPLHIKVKPKRVGIFLDYEAGTLSFYNVTDRSHIYTFTDTFTEKLWPLFYPGIRAGRKNAAPLTIRPPTDWE
B9: TRIM44: human RING type E3 ligase expressed from lentiviral vector (protein, UniProt Q96DX7 1-344, looked up)
Tripartite motif-containing …: MASGVGAAFEELPHDGTCDECEPDEAPGAEEVCRECGFCYCRRHAEAHRQKFLSHHLAEYVHGSQAWTPPADGEGAGKEEAEVKVEQEREIESEAGEESESEEESESEEESETEEESEDESDEESEEDSEEEMEDEQESEAEEDNQEEGESEAEGETEAESEFDPEIEMEAERVAKRKCPDHGLDLSTYCQEDRQLICVLCPVIGAHQGHQLSTLDEAFEELRSKDSGGLKAAMIELVERLKFKSSDPKVTRDQMKMFIQQEFKKVQKVIADEEQKALHLVDIQEAMATAHVTEILADIQSHMDRLMTQMAQAKEQLDTSNESAEPKAEGDEEGPSGASEEEDT
modifications: lentiviral expression
notes: as for B1

Tested on: coxsackievirus B3 (CVB3-GFP)
Assay type: cell-based
Conditions: HeLa cells, GFP-positive cells within RFP-positive gate, replicate R1

Row | Molecule | Percent Infected R1
1 | B1 | 60.7%
2 | B2 | 61.4%
3 | B3 | 60.8%
4 | B4 | 58.8%
5 | B5 | 63.9%
6 | B6 | 66.3%
7 | B7 | 62.8%
8 | B8 | 58.6%
9 | B9 | 61.7%

Same assay, conditions: HeLa cells, replicate R1

Row | Molecule | Z score R1
10 | B1 | −0.355
11 | B2 | −0.346
12 | B3 | −0.354
13 | B4 | −0.379
14 | B5 | −0.314
15 | B6 | −0.284
16 | B7 | −0.328
17 | B8 | −0.382
18 | B9 | −0.342
